Results as given in article PMC5707476, “Enzyme repurposing of a hydrolase as an emergent peroxidase upon metal binding” (Chemical Science, 2015).
Substitutions are numbered along the chain they refer to. In names and notes the source's numbering stands.

Substrate: COc1cc(-c2ccc(N)c(OC)c2)ccc1N
Assay: purified protein
Format: biochemical, Mycolicibacterium smegmatis
Conditions: 6.6 mM t-BuOOH, 4.5 μM Cu(II)
[1] = 6-PGLac (parent), 1.25 μM protein, MES pH 6.5, 150 mM NaCl, 25 °C, free copper background subtracted
[2] = D131N (reversion of parent N131D = natural sequence), 1.25 μM protein, MES pH 6.5, 150 mM NaCl, 25 °C, free copper background subtracted
[3] = H9A on the N131D parent, MES pH 6.5, 25 °C
[4] = Y69W on the N131D parent, MES pH 6.5, 25 °C
[5] = Y69F on the N131D parent, MES pH 6.5, 25 °C
[6] = Y69L on the N131D parent, MES pH 6.5, 25 °C
[7] = H95A on the N131D parent, MES pH 6.5, 25 °C

B1: 6-phosphogluconolactonase (6-PGLac; Cu·6-PGLac) (Mycolicibacterium smegmatis MC2 155; N131D) (protein)
chain: MSDTVIERHADTAALVAAAGDRLVDAISSAIGERGQATIVLTGGGTGIGLLKRVRERSGEIDWSKVHIYWGDERFVPQDDDERNDKQAREALLDHIGIPPVNVHAMAASDGEFGDDLEAAAAGYAQLLSADFDSSVPGFDVHLLGMGGEGHVNSLFPDTDAVRETERLVVGVSDSPKPPPRRITLTLPAVQNSREVWLVVSGEAKADAVAAAVGGADPVDIPAAGAVGRERTVWLVDEAAAAKL
notes: Strep-tag II, expressed in E. coli, purified, loaded with Cu(II)
For B1, the Km [1] was 11 ± 3 µM, the kcat [1] was 78 ± 4 × 10^-3 s^-1 and the kcat/Km [1] was 6900 ± 2000 M⁻¹ s⁻¹. For the same protein, the Km [2] was 21 ± 6 µM, the kcat [2] was 150 ± 10 × 10^-3 s^-1 and the kcat/Km [2] was 7200 ± 2000 M⁻¹ s⁻¹.

B2: 6-phosphogluconolactonase (6-PGLac; Cu·6-PGLac) (Mycolicibacterium smegmatis MC2 155; H9A/N131D) (protein)
chain: B1 chain with H9A
notes: as for B1
For B2, the Km [3] was 12 ± 5 µM, the kcat [3] was 80 ± 6 × 10^-3 s^-1 and the kcat/Km [3] was 6500 ± 3000 M⁻¹ s⁻¹.

B3: 6-phosphogluconolactonase (6-PGLac; Cu·6-PGLac) (Mycolicibacterium smegmatis MC2 155; N131D/Y69W) (protein)
chain: B1 chain with Y69W
notes: as for B1
With B3 the Km [4] was 4.8 ± 2 µM, the kcat [4] was 33 ± 2 × 10^-3 s^-1 and the kcat/Km [4] was 6900 ± 3000 M⁻¹ s⁻¹.

B4: 6-phosphogluconolactonase (6-PGLac; Cu·6-PGLac) (Mycolicibacterium smegmatis MC2 155; N131D/Y69F) (protein)
chain: B1 chain with Y69F
notes: as for B1
With B4 the Km [5] was 36 ± 8 µM, the kcat [5] was 100 ± 7 × 10^-3 s^-1 and the kcat/Km [5] was 2900 ± 700 M⁻¹ s⁻¹.

B5: 6-phosphogluconolactonase (6-PGLac; Cu·6-PGLac) (Mycolicibacterium smegmatis MC2 155; N131D/Y69L) (protein)
chain: B1 chain with Y69L
notes: as for B1
In the case of B5, the Km [6] is reported as 82 ± 10 µM, the kcat [6] is reported as 490 ± 30 × 10^-3 s^-1 and the kcat/Km [6] is reported as 5900 ± 900 M⁻¹ s⁻¹.

B6: 6-phosphogluconolactonase (6-PGLac; Cu·6-PGLac) (Mycolicibacterium smegmatis MC2 155; H95A/N131D) (protein)
chain: B1 chain with H95A
notes: as for B1
In the case of B6, the Km [7] is reported as 17 ± 5 µM, the kcat [7] is reported as 80 ± 6 × 10^-3 s^-1 and the kcat/Km [7] is reported as 4600 ± 2000 M⁻¹ s⁻¹.
